B1: F1*; the commonest letter at each place (parent)
chain: GAGACCGCAACTGAAAAGTTGTTATCACTTGTCGTAAGACACTTTGGATGGGTTGAAGTTCTGCACGTAGAAGCAAAAGGC

Variants of: B1
Assay: fraction ligated after 30 min (ligated reads / total reads); higher = more ligase activity
Conditions: with F1*sub RNA substrate (template-directed ligation), 42 °C
Procedure, shortened: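 Ligase ribozyme variants were made from oligo-pool templates by PCR amplification, T7 transcription and gel purification. After gel separation, ligated and unligated bands were reverse transcribed with barcoded primers and sequenced on a MiSeq, with core bases filtered at quality ≥20. The fraction ligated for each variant was the number of ligated reads divided by total reads.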

Variant	fraction ligated
GAGACCGCAACTGAAAAGTTGTTATCACTTGTCGTAAGACACATTGGATGGGTTAAAGTTCTGCACGTAGAAGCAAAAGGC	0.854
GAGACCGCAACTGAAAAGTTGTTATCACTTGTCGTAAGACACATTGGATGGGTTCAAGTTCTGCACGTAGAAGCAAAAGGC	0.724
GAGACCGCAACTGAAAAGTTGTTATCACTTGTCGTAAGACACATTGGATGGGTTTAAGTTCTGCACGTAGAAGCAAAAGGC	0.839
GAGACCGCAACTGAAAAGTTGTTATCACTTGTCGTAAGACACAATGGATGGGTTGAAGTTCTGCACGTAGAAGCAAAAGGC	0.848
GAGACCGCAACTGAAAAGTTGTTATCACTTGTCGTAAGACACACTGGATGGGTTGAAGTTCTGCACGTAGAAGCAAAAGGC	0.836
GAGACCGCAACTGAAAAGTTGTTATCACTTGTCGTAAGACACAGTGGATGGGTTGAAGTTCTGCACGTAGAAGCAAAAGGC	0.804
GAGACCGCAACTGAAAAGTTGTTATCACTTGTCGTAAGACACATAGGATGGGTTGAAGTTCTGCACGTAGAAGCAAAAGGC	0.725
GAGACCGCAACTGAAAAGTTGTTATCACTTGTCGTAAGACACATCGGATGGGTTGAAGTTCTGCACGTAGAAGCAAAAGGC	0.696
GAGACCGCAACTGAAAAGTTGTTATCACTTGTCGTAAGACACATGGGATGGGTTGAAGTTCTGCACGTAGAAGCAAAAGGC	0.43
GAGACCGCAACTGAAAAGTTGTTATCACTTGTCGTAAGACACATTGGAAGGGTTGAAGTTCTGCACGTAGAAGCAAAAGGC	0.743
GAGACCGCAACTGAAAAGTTGTTATCACTTGTCGTAAGACACATTGGACGGGTTGAAGTTCTGCACGTAGAAGCAAAAGGC	0.605
GAGACCGCAACTGAAAAGTTGTTATCACTTGTCGTAAGACACATTGGAGGGGTTGAAGTTCTGCACGTAGAAGCAAAAGGC	0.797
GAGACCGCAACTGAAAAGTTGTTATCACTTGTCGTAAGACACCTTGGATGGGTTGAAGTTCTGCACGTAGAAGCAAAAGGC	0.81
GAGACCGCAACTGAAAAGTTGTTATCACTTGTCGTAAGACACCTTGGCTGGGTTGAAGTTCTGCACGTAGAAGCAAAAGGC	0.723
GAGACCGCAACTGAAAAGTTGTTATCACTTGTCGTAAGACACCTTGGGTGGGTTGAAGTTCTGCACGTAGAAGCAAAAGGC	0.764
GAGACCGCAACTGAAAAGTTGTTATCACTTGTCGTAAGACACCTTGGTTGGGTTGAAGTTCTGCACGTAGAAGCAAAAGGC	0.668
GAGACCGCAACTGAAAAGTTGTTATCACTTGTCGTAAGACACCTTGGATGGGTTGCAGTTCTGCACGTAGAAGCAAAAGGC	0.731

Variant	fraction ligated
GAGACCGCAACTGAAAAGTTGTTATCACTTGTCGTAAGACACCTTGGATGGGTTGGAGTTCTGCACGTAGAAGCAAAAGGC	0.757
GAGACCGCAACTGAAAAGTTGTTATCACTTGTCGTAAGACACCTTGGATGGGTTGTAGTTCTGCACGTAGAAGCAAAAGGC	0.755
GAGACCGCAACTGAAAAGTTGTTATCACTTGTCGTAAGACACCTTGGATGGGTTGACGTTCTGCACGTAGAAGCAAAAGGC	0.733
GAGACCGCAACTGAAAAGTTGTTATCACTTGTCGTAAGACACCTTGGATGGGTTGAGGTTCTGCACGTAGAAGCAAAAGGC	0.785
GAGACCGCAACTGAAAAGTTGTTATCACTTGTCGTAAGACACCTTGGATGGGTTGATGTTCTGCACGTAGAAGCAAAAGGC	0.79
GAGACCGCAACTGAAAAGTTGTTATCACTTGTCGTAAGACACCTTAGATGGGTTGAAGTTCTGCACGTAGAAGCAAAAGGC	0.789
GAGACCGCAACTGAAAAGTTGTTATCACTTGTCGTAAGACACCTTCGATGGGTTGAAGTTCTGCACGTAGAAGCAAAAGGC	0.791
GAGACCGCAACTGAAAAGTTGTTATCACTTGTCGTAAGACACCTTTGATGGGTTGAAGTTCTGCACGTAGAAGCAAAAGGC	0.776
GAGACCGCAACTGAAAAGTTGTTATCACTTGTCGTAAGACACCTTGAATGGGTTGAAGTTCTGCACGTAGAAGCAAAAGGC	0.767
GAGACCGCAACTGAAAAGTTGTTATCACTTGTCGTAAGACACCTTGCATGGGTTGAAGTTCTGCACGTAGAAGCAAAAGGC	0.276
GAGACCGCAACTGAAAAGTTGTTATCACTTGTCGTAAGACACCTTGTATGGGTTGAAGTTCTGCACGTAGAAGCAAAAGGC	0.446
GAGACCGCAACTGAAAAGTTGTTATCACTTGTCGTAAGACACCTTGGATAGGTTGAAGTTCTGCACGTAGAAGCAAAAGGC	0.187
GAGACCGCAACTGAAAAGTTGTTATCACTTGTCGTAAGACACCTTGGATCGGTTGAAGTTCTGCACGTAGAAGCAAAAGGC	0.111
GAGACCGCAACTGAAAAGTTGTTATCACTTGTCGTAAGACACCTTGGATTGGTTGAAGTTCTGCACGTAGAAGCAAAAGGC	0.441
GAGACCGCAACTGAAAAGTTGTTATCACTTGTCGTAAGACACCTTGGATGGGTTAAAGTTCTGCACGTAGAAGCAAAAGGC	0.803
GAGACCGCAACTGAAAAGTTGTTATCACTTGTCGTAAGACACCTTGGATGGGTTCAAGTTCTGCACGTAGAAGCAAAAGGC	0.571
GAGACCGCAACTGAAAAGTTGTTATCACTTGTCGTAAGACACCTTGGATGGGTTTAAGTTCTGCACGTAGAAGCAAAAGGC	0.817

— the supplement of paper PMC6755084
